Experimental data taken from the nanobody polyreactivity screen of Harvey et al. (2022).

assay: yeast display, Sf9 membrane polyspecificity reagent, FACS + sequencing; frameworks hold sequencing errors
Outline: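 Synthetic nanobody libraries on Saccharomyces cerevisiae BJ5465 were galactose-induced for 36–48 hours, stained 1 hour at 4 °C with 10% biotinylated, detergent-solubilized Sf9 membrane reagent and enriched on streptavidin microbeads. FACS then separated cells into low and high (top ~1%) gates by anti-HA (expression) and streptavidin (reagent binding) fluorescence. Genes were colony-PCR amplified, MiSeq 2 × 250 sequenced and CDR-length filtered. A clone's polyreactivity label is that of its gate of origin.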

| Sequence | polyreactivity (PSR sort gate) |
| --- | --- |
| QVQLVESGGGLVQAGGSLRLSCAASGRTFYGNTMGWYIQAPGKERELVAAITRSGGSTYYADSVKGRFTISRDNAKNTVYFQMNSLKPEDTAVYYCAASRTYYAPYGYWGQGTQVTVSS | high polyreactivity |
| QVQLVESGGGLVQAGGSLRLSCAASGRTFYGYAMGWSRPAPGKERELVAAISTGGSTSYADSVKGRFTISRDNAKNTVYLQMNSLKPEDTAVYYCAAVYYLTDWYGVWYSFDYWGQGTQVTVSS | low polyreactivity |
| QVQLVESGGGLVQAGGSLRLSCAASGRTFYGYAMGWYREAPGKERELVASISWSTGSTHYADSVKGRFTISRDNAKNTVYLQMNSLKPEDTAVYYCAAPFWRDSYVQIDYDYWGQGTQVTVSS | low polyreactivity |
| QVQLVESGGGLVQAGGSLRLSCAASGRTFYGYAMGWYRQAPAKERELVAAITWSVGRTYYADSVKGRFTISRDNAKNTVYLQMNSLKPEDTAVYYCAAQRAGLFNYWGQGTQVTVSS | low polyreactivity |
| QVQLVESGGGLVQAGGSLRLSCAASGRTFYGYAMGWYRQAPGKERELVAAITYSGGRTYYADSVKGRFTISRDNAKNTVYLQMNSLKPEDTAVYYCNTGYWYVSLGSYDYYGEYDYWGQGTQVTVSS | high polyreactivity |
| QVQLVESGGGLVQAGGSLRLSCAASGRTFYGYAMGWYRQAPGKERELVASISRDGYTNYADSVKGRFTISRDNANNTVYLQMTSLKPEDTAVYYCAADFWYYRYPIYYYSYDYWGQGTQVTVSS | low polyreactivity |
| QVQLVESGGGLVQAGGSLRLSCAASGRTFYHNAMGWYRQAPGKERELVAAITSGARTKYADSVKGRFTISRDNAKNTVYLQMNSLKPEDTAVYYCAAVYYFGKGKTFDYWGQGTQVTVSS | high polyreactivity |
| QVQLVESGGGLVQAGGSLRLSCAASGRTFYIYAMGWYRPAPGKERELVAAITYGGGRTFYADSVKGRFTISRDNAKNTVYLQMNSLKPEDTAVYYCAATVRGKRSTYDYWGQGTQVTVSS | high polyreactivity |
| QVQLVESGGGLVQAGGSLRLSCAASGRTFYIYAMGWYRQAPGKERELVAAISTTGGRTYYADSVKGRFTISRDNAKNTVYLQMNSLKPVDTAVYFCAAPARTRYDYWGQGTQVTVSS | high polyreactivity |
| QVQLVESGGGLVQAGGSLRLSCAASGRTFYIYVMGWYRQAPGKERELVAGITWRGGITYYADSVKGRFTISRDNAKNNVYLQMNSLKPEDTAVYYCAVDDLGSEYDYWGQGTQVTVSS | low polyreactivity |
| QVQLVESGGGLVQAGGSLRLSCAASGRTFYKNAMGWYRQAPGKERELVARISRGGSTNYADSVKGRFTISRDNAKNTVYLQMNSLKPEDTAVYYCAKEYGTHGKTYDYWGQGTQVTVSS | high polyreactivity |
| QVQLVESGGGLVQAGGSLRLSCAASGRTFYKNAMGWYRQAPGKERELVATITSGGSTNYADSVKGRFTISRDNAKNTVYLQMNSLKPEDTAVYYCAAAKPVQFRIAQAHVGYWGQGTQVTVSS | low polyreactivity |
| QVQLVESGGGLVQAGGSLRLSCAASGRTFYKNTMGWYIQAPGKERELVATISQRGGSTYYADSVKGRFTISRDNAKNTVYLQMNSLKPEDTAVYYCNARKYTQSIHYDYWGQGTQVTVSS | high polyreactivity |
| QVQLVESGGGLVQAGGSLRLSCAASGRTFYKNTMGWYRQAPGKERELVAAIRWRGSSTYYADSVKGRFTISRDNAKNSVYLKMNSLKPEDTAVYYCAAPSSVRGKVISADYAYWGQGTQVTVSS | high polyreactivity |
| QVQLVESGGGLVQAGGSLRLSCAASGRTFYKNTMGWYRQAPGKERELVATISQRRGSTYYADSVKGRFTISRDNAKNTVYLQMNSLKTEDTAVYYCNARKYTQSIHYDYWGQGTQVTVSS | high polyreactivity |
| QVQLVESGGGLVQAGGSLRLSCAASGRTFYKYAKGWYRQAPGKERELVAAISWSGGSTYYADSVKGRFTISRDNAKNTVYLLMKSLKPEDTAVYYSNRASYPFVKPRYECWGQGTQVTVSS | high polyreactivity |
| QVQLVESGGGLVQAGGSLRLSCAASGRTFYKYAMGWSRQAPGKERELVAAISSDGTTYYADSVKGRFTISRDNAKNTVYLQMNSLKPEDTAVYYCAADPPPPFLYVSVQEYDYWGQGTQVTVSS | low polyreactivity |
| QVQLVESGGGLVQAGGSLRLSCAASGRTFYKYAMGWYIQAPGKERELVARISGRGGRTYYADSVKGRFTISRDNAKNTVYLQMNSLKPEDTEVYYCASDWVPINVKSLVVTYDYWGQGTQVTVSS | low polyreactivity |
| QVQLVESGGGLVQAGGSLRLSCAASGRTFYLNAMGWYRQAPGKERELVAAIRFSGGSTYYADSVKGRFTISRDNAKNTVLLQMNSLKPEDTAVYYCNAGPYHSLYPTVSEYGYWGQGTQVTVSS | low polyreactivity |
| QVQLVESGGGLVQAGGSLRLSCAASGRTFYLNTMGWYRQAPGKERELVAGITSSGTRTYYADSVKGRFTISRDNAKNTVYLQMNSLKPEDTAVYYSAKTWGGQIRPRYRYGSGYDYWGQGTQVTVSS | high polyreactivity |
| QVQLVESGGGLVQAGGSLRLSCAASGRTFYLYAMGWYRQAPGKERELVAAINTNGARTYYADSVKGRFTISRDHAKNTVYLQMNSLIPEDTAVYYCNADAYRVIANWIYDYWGQGTQVTVSS | low polyreactivity |
| QVQLVESGGGLVQAGGSLRLSCAASGRTFYLYGMGWYRQAPGKERELVAAITITDSTNYADSVKGRFTISRDNAKNTVYLQMNSLKPEDTAVYYCAKRRYYSTPRWGSSTYDYWGQGTQVTVSS | low polyreactivity |

| Sequence | polyreactivity (PSR sort gate) |
| --- | --- |
| QVQLVESGGGLVQAGGSLRLSCAASGRTFYNAMGWYRQAPGKERELVAAITTGGGTKYADSVKGRFTISRDNAKNTVYLQMNSLKPEDTAVYYCNTDEWYHFYHGAHKYDYWGQGTQVTVSS | low polyreactivity |
| QVQLVESGGGLVQAGGSLRLSCAASGRTFYNNAMGWYRQAPGKERELVAVISRGGTTYYPDSVKGRFTISRDNAKNTVYLQMNSLKAEDTSVYYCAKQVPSGDSSSQMGSWGQGTQVTVSS | low polyreactivity |
| QVQLVESGGGLVQAGGSLRLSCAASGRTFYNYAMGGYRQAPGKERELVAAISWSDGTTYYADSVKGRFTISRDNAKNTVYLQMNSLKPEDTAVYYCAAEFESSFALGFYYWGQGTQVTVSS | high polyreactivity |
| QVQLVESGGGLVQAGGSLRLSCAASGRTFYPNVMGWYRQAPGKERELVAAITSGGSTYYADSVKGRFTISRDNAKNTVALEMNSQKPEDTAVYYCAVAYAGGGSRKYDYWGQGTQVTVSS | low polyreactivity |
| QVQLVESGGGLVQAGGSLRLSCAASGRTFYPYAMGWSRQAPGKERELVAAISWNGGRTYYADSVKGRFTISRDNAKNTVYLQMNSLKPEDTAVYYCAADTAYYDFDYWGQGTQVTVSS | low polyreactivity |
| QVQLVESGGGLVQAGGSLRLSCAASGRTFYPYAMGWYRQAPGKERELVATITWSGTTTYYADSVKGRFTISRDNAKNTVYLQMNSLKPEDTAVYYCAADVWEVVTPYGTIDDDYWGQGTQVTVSS | high polyreactivity |
| QVQLVESGGGLVQAGGSLRLSCAASGRTFYPYAMGWYRQAPGTERELVAAISRSGGGTYYADSVKGRFTISRDNAKNTVYLQMNSLKPEDTAVYYCAAARYLSIYNYWGQGTQVTVSS | low polyreactivity |
| QVQLVESGGGLVQAGGSLRLSCAASGRTFYPYVMGWYRQAPGKERELVARIRWSGSSTYYADSVKGRFTISRDNAKNTVYLQMNSLKPEDTAVYYCNARPSWYVFGSSVHSGMGYWGQGTQVTVSS | high polyreactivity |
| QVQLVESGGGLVQAGGSLRLSCAASGRTFYPYVMGWYRQAPGKERELVATISWSGGSTYYADSVKGRFTISRDNAKNTVYLQMNSLKPEDTAVYYCAALWPYGYWGQGTQVTVSS | low polyreactivity |
| QVQLVESGGGLVQAGGSLRLSCAASGRTFYPYVMRWYRQAPGKERELVAAITNRGGSTYYADSVKGRFTISRDNAKKTVYLQMNSLKPEDTAVYYCAKRQVGVGHYDHWGQGTQVTVSS | low polyreactivity |
| QVQLVESGGGLVQAGGSLRLSCAASGRTFYQNAMGWYRQAPGKERELVAAISYRGASTYYADSVKGRFTISRDNAKNTVYLQMHSLKPEDTAVYYCAVAARTRARVLYGYDYWGQGTQVTVSS | low polyreactivity |
| QVQLVESGGGLVQAGGSLRLSCAASGRTFYQYAMGWYRPAPGKERELVAAITTSGGSTYYADSVKGRFTNSRDNAKNTVYLQMNSLKPEDTAVYYCAAPYTGYRERGSYKSDYWGQGTQVTESS | low polyreactivity |
| QVQLVESGGGLVQAGGSLRLSCAASGRTFYQYAMGWYRQAPGKERELVAAISRSGTSTYYADSVKGRFTISRDNAKNTVYLQMNSLKPEDTAVYYCYVLRYDYWGQGTQVTVSS | high polyreactivity |
| QVQLVESGGGLVQAGGSLRLSCAASGRTFYQYAMGWYRQAPGKERELVAAITRRGGSTYYADSVKGRFTISRDNAKNTVYLQMNSLKPDDTAVYYCNAQYKKGFDYWGQGPQVTVSS | high polyreactivity |
| QVQLVESGGGLVQAGGSLRLSCAASGRTFYRKAMGWYRQAPGKERELVAAITYGGGSTYYADSVKGRFTISRDNAKNTVYLQMNSLKPEDTAVYYCNALRNVRTGRTQVLSYYWGQGTQVTVSS | high polyreactivity |
| QVQLVESGGGLVQAGGSLRLSCAASGRTFYRNAMGWYRQAPGKERELFATINSGGSTHYADSVKGRFTISRDNAKNTVYLQMTSLKPEDNAVYYCAARSQSYRGSLSYYWGQGTQVTVSS | high polyreactivity |
| QVQLVESGGGLVQAGGSLRLSCAASGRTFYRNAMGWYRQAPGKERELVAAISQRGGRTYYADSVKGRFTISRDNAKNTVYLQMNSLKPEDTAVYYCAASPIYPVYRRHGYWGQGTQVTVSS | high polyreactivity |
| QVQLVESGGGLVQAGGSLRLSCAASGRTFYRNAMGWYRQAPGKERELVAAISRGDSTYYADSVKGRFTNSRDNAKNTVYLQMNILIPEDTAVYYCAKRARRIGDVNMGSWGQGTQVTVSS | low polyreactivity |
| QVQLVESGGGLVQAGGSLRLSCAASGRTFYRNPMGWYRQAPAKERELVAANSWSGGRTFYADSVKGRFTISRDNAKNTVYLHMNSMKPEDTAVYYCAKSYTTPGYYRYDYWGQGTQVTVSS | high polyreactivity |
| QVQLVESGGGLVQAGGSLRLSCAASGRTFYRSAMGWYRQAPGKERELVAAISSSGGRTYYADSVKGRFTISRDYAKNTVYLQMNSLKPEDTAVYYCNAAPSWSTSFDSWGQGTQVTVSS | high polyreactivity |
| QVQLVESGGGLVQAGGSLRLSCAASGRTFYRYAMGWYRQAPGKERELVAAISSGGSTNYADSVKGRFTISRDNAKNTVYLQMNSLKPEDTAVYYCAAETRLHRQDYDYWGQGTQVTVSS | low polyreactivity |
